Assay: label from the status in PepcDB records

Sequence: MIKDCANRYFLSFVVEVEPNTTIANNQSIGIDLGLKTFAVMSNGEKALSPDYSKHDRKIRKLQKKLARQQKDSKRRNNTRVKIAKLHNQIADTRKDFLHKLSTKIINDNQVIVLEDLNVSGMVKNSRLSRVISLQGWREFRNLCEAKSEKFSRDFRVIDRWQPTSQICSCCGFRWGKIDLSVRSILCLSCGTEQERDENASRNIEMVGMGHRHDLKRAGSDCQTTSVASYCELSRITEVESR
- protein production: failed

Sequence: MANIDLHFHSRTSDGALTPTEVIDRAAARAPALLALTDHDCTGGLAEAAAAAARRGIPFLNGVEVSVSWGRHTVHIVGLGIDPAEPALAAGLKSIREGRLERARQMGASLEAAGIAGCFDGAMRWCDNPEMISRTHFARHLVDSGAVKDMRTVFRKYLTPGKPGYVSHQWASLEDAVGWIVGAGGMAVIAHPGRYDMGRTLIERLILDFQAAGGQGIEVASGSHSLDDMHKFALHADRHGLYASSGSDFHAPGEGGRDVGHTEDLPPICRPIWRELEARILRP
- protein production: failed

Sequence: MITDIPWNRGEWTNQPAAVVEQAGDLLVTAAESSDAWRVTSYGFIHDTEHALLAPLPQDSAMEVEFTAAFSQQFDQAGIFVRISAEHWIKAGVEFADGAAQVGAVVTNRFSDWSLAPVPDWNGERVRMRVSRSGDALTIRAASGSNELRLVRVVPLAPDLVTVAGPFTCAPTRAGLTVPFHSWRAKPADSQLH
- protein production: failed

Sequence: KGKSFIWIKRQLDPKVAEEVKALGLENFVFEKELKRHYPMGNLFAHVIGFTDIDGKGQEGLELSLEDSLYGEDGAEVVLRDRQGNIVDSLDSPRNKAPQNGKDIILSLD
- protein production: failed

Sequence: MTTDRPLSPPLDHAWIAARIPHSGAMCLLDQVVTWDDTHIRCTTTSHRAPDNPLRAHGRLAAVCGIEYAAQAMAVHGAILGNAQDRPRAGFLASVRSVEAHVERLDTIEAPLTIEAERIGGDGNNVLYRFSVRCGERVLLTGRAAVVLDAAGLGLPDAGALAKANAQAR
- protein production: failed

Sequence: MSELPPREQPPRDQAISVAAISPERPDNHENDWTRRLVLFLRVMAVLSVAKGLYHWAQITGFVGGEDDAFEVQTMAWQTATIYFAVIELVAAVGLWLATPWGAVVWLTTVVSMAVIELMFPAIYGGSLLVVLGEALLLAAYLALAWMAARERPP
- protein production: failed

Sequence: MISAGDFKNGVTFELDGQIFQVIEFQHVKPGKGAAFVRTKLKNIVTGATIEKTFNPTDKMPKAHIERKDMQYLYNDGDLYYFMDTETFEQLPLGKDKIGDALKFVKENEIVKVLSHKGNVFGIEPPNFVELEVTDTEPGFKGDTATGATKPAIVETGASIKVPLFVNKGDIIRIDTRTGEYMERV
- protein production: not failed

Sequence: METDPDYSMVLLTENFPPYNMAINGKNFAQEDNIDGIAVDIVREMFKRAGIKYSLTLRFPWDRIYKLALEKPGYGVFVTARLAEREDKFKWVGPIGPDDWVLLAKGDSPITLGSLDEAKKYRIGAYKGDAIAEFLGKNGFEADLEHHHHHH
- protein production: failed

Sequence: MAPKAQKSPKGQRKGKKKTKQQSLVSEEEEPMNMESMDVAPGSSPDLDISMASDGHPEIYPLVLTAKTQEIFNCRIDEDMTDEQTYKLIKKEDILADLQNRAAVSDFHPVKKIVLEYPGEELLLVYDKDFKYGLNFYLIGTEEGKENFLKAPEIPEEQEDLKEHVPEDVYIYKPPVSKPWISLGSEKEIEEESVQESKKRVTYMISRKRSQFGAPVTFRDQNASSVKDAYIECTSYPDKSYTLTQVEKDIGLQVIAEVKDTSTQTRWAFPRNATTQYYPREFSEEEKNVLVESKSLAEFFSTVSTSVEIALQQNEIMNTFTDDWRSLAEEESTFGDKTDTHLKEYQSFTDLHNTMEKMITCVSWHPTIYGLIVVSVAVRLSYEERVQNSSRLLLQPSLILFWSFSDPIHPQLMLESPDDIFCFEFCPSDPNIIAGGCINGQIILWDITAHAERIENIKTGGSRSKKATLKPMFLLEPDSNKEIMYVRHCAVSSIENGHRKVITDIHWLPDSFEINRMGSVFENRSGINCQLITCSADCTICFWDIRPQKPTVTSAATATTTSTTNTNPQQPPAEKKKEESIEIPFDVPSTFLHLDLSWKPLSRIKLSKGETSLDHCPTKLSLGEDPALCKIQDKMLSQMKLLKAAEINPYQNLEGGMANMLKPIEDFRTKFFVGTEEGEVIYTDWKMERDSETGRLMAKKPVNLYTVHDGAVHTVQRSPFFNDIILTVGGWNVAIWKEEVLTGPLLQTCCAPKRYTAGHWSLTRPGVFYIGREDGYVDIWDLLEKTHEPAQSQSICITMITYIKPWTFSCRPPFLPQADRSMMVSLLMSMRHSAKPSGDQNPVSSVNYYFEREVKHLEYVQQRKEIREEEKKAMAMEMIKKKAKTYHRSKEQMEAELKLEYESYLELEQSVLFALGLGKVSEKMSYLDLH
- protein production: failed

Sequence: MNNKIYFTPGPSELYPTVRQHMITALDEKIGVISHRSKKFEEVYKTASDNLKTLLELPSNYEVLFLASATEIWERIIQNCVEKKSFHCVNGSFSKRFYEFAGELGREAYKEEAAFGKGFYPADITVPADAEIICLTHNETSSGVSMPVEDINTFRDKNKDALIFVDAVSSLPYPKFDWTKIDSVFFSVQKCFGLPAGLGVWILNDRVIEKSKALLAKRKSIGTYHTIPSMLEKARVNQTPETPNAMNIFLLGKVTGDMLQISADGIRKQTEEKAALINTYIESSKVFSFGVEDAKLRSMTTIVANTTMLPGEINKILEPFDMAVGAGYGSKKETQIRIANFPAHSLEQVHKLVQTLKEKIG
- protein production: not failed

Sequence: MSRAKAAPVAGPEVAANRAGRQARIVAILSSAQVRSQNELAALLAAEGIEVTQATLSRDLEELGAVKLRGADGGTGIYVVPEDGSPVRGVSGGTDRMARLLGELLVSTDDSGNLAVLRTPPGAAHYLASAIDRAALPQVVGTIAGDDTILVVAREPTTGAQLAGMFENLR
- protein production: not failed

Sequence: MMEHHKVHTTIQALQAKRKKLLTELAELEAEIKVSSERKSSFNISLSPSLLAEIEEIEYEEKTSKERRINHSVLLSPSFMAKVDEYMKEKGFSNRSLLFEKALEFYMLKHP
- protein production: failed

Sequence: MAENHCELLPPAPSGLGAGLGGGLCRRCSAGMGALAQRPGGVSKWVRLNVGGTYFLTTRQTLCRDPKSFLYRLCQADPDLDSDKDETGAYLIDRDPTYFGPVLNYLRHGKLVINKDLAEEGVLEEAEFYNITSLIKLVKDKIRERDSRISQMPVKHVYRVLQCQEEELTQMVSTMSDGWKFEQLVSIGSSYNYGNEDQAEFLCVVSKELHNTPYGTTSEPSEKAKILQERGSRM
- protein production: not failed

Sequence: MFISCIILINYSYIFGKNIRYLYEFKVIWKSNNSLILFFIEFDRNFMTIKFKLFKCRRLNILIELINIENYFRNGNILCFIFNIPSIPRNLLINVFLTSSNKVNISIQGLKLEHHHHHH
- protein production: failed

Sequence: MQGFLRSLFFGVKKIPKPFAPLVEKGVLKEALELKKDRYFLKEGFDIGKVEKVKDKAFFISLAKNYPKDPLIKNLPPSFKTDALILCQIECSKKRPIAFFKAALLNADHTMIAYLAKKNNQIVAIPFKEPFKKPVSLKHSQKSLLELPRHCVVKIDTKKREISEILGALEDPLIDENLSLSLFDRVKDFSKDCLNLAQHYAQLKASDFKDRINYSHIPFITIDPKDAKDFDDAIFYDQEKRVLFVAVADVSEFVPKHSSLDKEARVRGFSVYFPNSVYPMLPLSLSQGACSLKAFEKRLALVYEIPLDNLKNARLSQGVIEVRANCTYEEINHFLSANQSSLDKDLQQSLLGFLEMALKLKKERLKKGFNFNSFENKLYLNKEGRIEKIETEKESDAHTLIEEAMLLANQSSARLLDEHFHNKGIYRTHKEPSLEQQKRLYDKLFDYEIVRPKNMGFFPFLEHALKIAKEKSIEREVSRLIIKSQNLALYSPLQESHFGLGFASYTHFTSPIRRYSDLALHRLLKELLFYQAKGCSYLLEETPELCAELNALQKKAALIERDFIKRKFARLALELLEKEFLGVVLEVKDWVVVGLKEFIGLKVLVKTNKVFKPLEKVRVTITHADLILGQVRGEITERIKEHVS
- protein production: failed

Sequence: SLSTVNIKSTGVTSTELAEIGEHQSEMPGVKVGTSWTRSYPNGTDLSSVLGTVTTEKQGLPSDSIKTLLAEGYSRDDSVGQSQLEKQYENVLRGTKSQTEVKTQDGVIQKEIKKYGGQKGDNVQLTIN
- protein production: failed

Sequence: MTTEVKQSPRERLLEAAAALTYRDGVGIGVEALCKAAGVSKRSMYQLFESKDELLAASLKERSAAFVAKALPPADDGRSPRERILYVFERVESQAGAPDFQGCRYLAVQIELKDQAHPASRVAYQIKADLMAFFRSEAERGGASDPDLLARQLILVFDGASARAGIGADNLTGLIVPTLTTLLDAADMH
- protein production: not failed

Sequence: MDQKSTTCLEALAKLSQQREHQTTPATLCSSEHFFANETIYSDATFLSTTEEAFISSPSSSTQGPKPGLKRVSTGPMTRILEGCQNDKPNSPELERVEEAEDNYSGTSSEEAFSQGIPYPHQVGGHGALSSFERGRVLKPAAKKEIDFYNFIYSDNLPSELEWLRTVTPKYFGQRKTQAKAKRILENQVTPFSQTSSVPVNTVLHIDRKDSERNIWKDQVGELVMDTNPWARACLLKELQKEDEVKSFIILEDLTCHLKKPCVLDCKMGTRHYDDDATEEKKKAHIEKATKTTSSSTGIRFTGMQVYKLPSHTFLFHDKYYGRQLKSHELKNELFEFFHNGVLLRVDIIEQFLSKLQWLYQHLENQHYFNFYSSSLLFVYEGDEMATCPISDVRMIDFAHTQRCVEEQQNDGYLFGLSNLIHLMKSLLEDERNEMR
- protein production: failed

Sequence: MEINRQIIHPLIFVAFFVTITGSVAGAAAAPEVNMELVGHFGGTTDAVDVAGNYAYVGQGQDFLILDITNPSSPVLVSKIMTEGFVRDIKVSRNYAYVADDDNGLVIVDISNPSSPTLKGSYNIPGYTYCITVSGNYAYVADNDGLVIVDISNPSDPILKGRYAGPTGDVAVYGNYAYVADWGNGLMIVDISNPSSPVLKGSYDTAGDIYGVSISGNYAYVADGDTGLVIVDISNPSSPTLKGNYNTAGIACDVSVLGNYAYVADNDNGLVIVDISDPSSPVLKGNGSTTGYAHGIEVSGNYAYVANSNTGLVIVDISNPSSPTLKGSCDTIVRAKSIAVSGNYAYIADWDNGLVIVDISNPSSPFLKGSCDTPRSAQGVAVSGNYAYVADDDGLVIVDISNPSFPILNKSYNTGGWAQGITVSGNYAYVIDMANGIFIVDISNPSSPILEGMYDTSPIIIENYDYTGSIWSVSVSGNYAYVADEGNGLLIVDISNPSSPILKGSYDTAGLAYDVAVSGNYAYVADSKNGLAIIDISNPSSPILVGNYNTSGYAECVSISGNYAYVAVDDSLVVVDISNPSSPILKGLYAGSAGDIAVSGNYVYASEGVNGLVILKANPESAFTVADFSSNITSGYAPLSIQFNDHSQNATSWNWDFGDGYNSTNQNPIHTYSSAGTYTVNLTVINENRTASKVAKIFVLNTSSSTEENSSGSEETGGDGVILTKDTGAPTKERKITPGFEIVYWVVSLLVAFWIKGSNKK
- protein production: failed

Sequence: MKKQYWWIIVTYILMQLSGVVGLPLLLKTGLYDNRGFTIEEKGQIITGHWAIISFFIALCIVLWLLRTDIRDRHLDPMRSSVPATIGWIFIGFFLAIISQSIAGMIEMYVFGVPRGSENTDRLLDIARTIPWFLIVVSIIGPILEEIVFRKILFGTLYKKFNFFIAAIISSLVFATIHFDFTHLLVYTAMGLVFAFLYVKTKRIIVPIAAHVAMNTLVAIGQIFMSNEQIQEMIKEAEKMQGFIGGFFV
- protein production: failed

Sequence: MGIMPRKVLAIKNFKERFDLLPKLKGVIAEKQPDILVVVGNILKNEALEKEYERAHLARREPNRKVIHENEHYIIETLDKFFREIGELGVKTFVVPGKNDAPLKIFLRAAYEAETAYPNIRVLHEGFAGWRGEFEVIGFGGLLTEHEFEEDFVLKYPRWYVEYILKFVNELKPRRLVTIFYTPPIGEFVDRTPEDPKHHGSAVVNTIIKSLNPEVAIVGHVGKGHELVGNTIVVNPGEFEEGRYAFLDLTQHKIKLEQFS
- protein production: not failed

Sequence: MVQQSEVRQMKHSVSTLNQEMTQLNQETVKITQQNRLNAKSSSGVYLLPGAKTPARLESQIGTLRMSLVNITPDADGTTLTLRIQGESNDPLPAFSGTVEYGQIQGTIDNFQEINVQNQLINAPASVLAPSDVDIPLQLKGISVDQLGFVRIHDIQPVMQLEHHHHHH
- protein production: not failed

From a protein production outcome set (Wang et al. 2014)
